Results from patent US20240327510A1, “DRUG FOR PREVENTING, ALLEVIATING OR TREATING MUCOSAL ADHESION AND USE THEREOF” (SHANGHAI SYNVIDA BIOTECHNOLOGY CO. LTD., priority 2021, published 2024).
Positions count from the first letter of the chain named. Names and notes keep the numbering of the source.

B1: LF2: anti-human Pear1 monoclonal antibody; VH SEQ ID NO: 1, VL SEQ ID NO: 16 (antibody, V domains shown)
VH: EVQLQQSGPELVKPGASMKISCKASGYSFTGYPMNWVRQSHVKNLEWIGVINPYNGGTSYNQKFKGKATLTVDKSSSTAYIELLSLTSDDSAVYYCARGGVRPFAYWGQGTLVTVSA
VL: DIQMTQTSSSFSVSLGDRVTITCKASEDIYNRLAWYQQKPGNAPRLLISGATSLETGVPSRFSGSGSGNDYTLSITSLQTEDVATYYCQQYWSTPTFGAGTKLELQ
B2: hLF105: humanized anti-human Pear1 antibody; VH SEQ ID NO: 8, VL SEQ ID NO: 22 (antibody, V domains shown)
VH: QVQLVQSGAEVKKPGASVKVSCKASGYTFTGYPMNWVRQAPGKRLEWMGVINPYNGGTSYNQKFKGRATLTVDTSASTAYMELSSLRSEDTAVYYCARGGVRPFAYWGQGTLVTVSS
VL: DIQMTQSPSSLSASVGDRVTITCKASEDIYNRLAWYQQKPGKAPKLLISGATSLETGVPSRFSGSGSGNDFTLTISSLQPEDFATYYCQQYWSTPTFGQGTKLEIK
B3: hLF-N55Q: humanized anti-human Pear1 antibody; VH SEQ ID NO: 13, VL SEQ ID NO: 22 (antibody, V domains shown)
VH: B2 VH with N55Q
VL: B2 VL
B4: hLF107: humanized anti-human Pear1 antibody; VH SEQ ID NO: 8, VL SEQ ID NO: 24 (antibody, V domains shown)
VH: B2 VH
VL: B2 VL with F71Y
B5: hLF110: humanized anti-human Pear1 antibody; VH SEQ ID NO: 9, VL SEQ ID NO: 23 (antibody, V domains shown)
VH: B2 VH with K43Q, R44N, A68V, T74K
VL: B2 VL with K42N

Experiments:
[1] = system: subcutaneous mucosal fibroblasts; experiment: TGFβ activated mucosal fibroblasts treated with antibody: hydroxyproline in supernatant and QPCR of Col7a1, ACTA2; format: cell-based, humanized Pear1 mice; conditions: 1 μg/mL antibody, 10 ng/mL TGFβ, 48 hours; versus control group
Description: After the treatment of starvation in cultured mucosal or subcutaneous derived fibroblasts for 12 hours, 1 μg/mL anti-human Pear1 monoclonal antibody (including LF2 antibody or hLF105 antibody) was added separately to treat the cells. After 30 minutes, 10 ng/mL TGFβ was added to treat the cells for 48 hours, then the cell supernatant was collected. The content of hydroxyproline was detected using the hydroxyproline detection kit of Nanjing Jiancheng Biology Co., Ltd. according to the instructions.
Mucosal fibroblasts in Method 5 were collected. Total mRNA was extracted by Trizol method (Invitrogen, Carlsbad, CA) according to standard protocols. Complementary DNA was synthesized using reverse transcriptase (Takara). ABI7000 Real-time PCR instrument (Life Technologies) was used to detect gene expression and the PCR primer sequences are shown in Table 5. The 18sRNA gene was used as an internal reference.
To further investigate the role of targeting Pear1 in inhibiting mucosal fibroblast activation, subcutaneous mucosal fibroblasts were isolated from humanized Pear1 mice and cultured in vitro. TGFβ activated fibroblasts were treated with anti-human Pear1 monoclonal antibodies (including LF2 or hLF105) for 48 hours, and the supernatants were collected to detect the content of hydroxyproline. The cells were collected for QPCR to detect the expression levels of extracellular matrix proteins such as collagen 7a1 (Col 7a1) and smooth muscle actin a2 (ACTA2) to characterize fibroblast activation and collagen synthesis.

humanized Pear1 mice [2] = experiment: Peritoneal adhesion model, BhatiaDS score; format: in vivo; design: key to BhatiaDS score: grade 0: no adhesion; grade I: adhesive area of the area treated in the caecums of vermiform/total area of the treated area<50%, easy for blunt separation; grade II: above-mentioned area ratio≥50%, easy for blunt dissection; Grade III: Regardless of the size of the adhesive area, as long as the adhesion is difficult to separate, blunt separation can still be performed, but the intestinal wall is obviously damaged after separation; Grade IV: Regardless of the size of the adhesive area, as long as the adhesion is firm and can no longer be bluntly separated, required sharp separation; conditions: for BhatiaDS score compared with the control group: versus control group, especially in the high-dose group (1.0 mg/kg)
Source text: The model was made in humanized mice within 3 cm from the caecums of vermiform in peritoneal cavity, following the methods in the literature (Zhiliang Zhang, et al., Characteristics of genesis and development of peritoneal adhesion by different causes: experiment with rats, Chinese Journal of Medicine, 2005). The mice were divided into 3 groups. groups, with 20 mice in each group: A, control group with normal saline; B, prophylactic intraperitoneal injection of anti-human Pear1 monoclonal antibody (including LF2 or hLF105 antibody) 0.5 mg/kg, once a week; C, prophylactic intraperitoneal injection of anti-human Pear1 monoclonal antibody 1 mg/kg, once a week. After the mice were euthanized at 2 time points of 2 weeks and 4 weeks, an inverted “U”-shaped incision was selected to enter the abdomen, avoiding the original surgical incision. […] And the degree of adhesion in the peritoneal adhesion model was evaluated. […]
According to the scoring standard of BhatiaDS, grade 0: no adhesion; grade I: adhesive area of the area treated in the caecums of vermiform/total area of the treated area<50%, easy for blunt separation; grade II: above-mentioned area ratio≥50%, easy for blunt dissection; Grade III: Regardless of the size of the adhesive area, as long as the adhesion is difficult to separate, blunt separation can still be performed, but the intestinal wall is obviously damaged after separation; Grade IV: Regardless of the size of the adhesive area, as long as the adhesion is firm and can no longer be bluntly separated, required sharp separation. Each mouse was scored by 3 people respectively, and the average value was taken as the score of adhesion in this sample.

humanized Pear1 mice [3] = experiment: Peritoneal adhesion model, determination of hydroxyproline in tissues; format: in vivo; conditions: versus control group
Source text: (§1) The model was made in humanized mice within 3 cm from the caecums of vermiform in peritoneal cavity, following the methods in the literature (Zhiliang Zhang, et al., Characteristics of genesis and development of peritoneal adhesion by different causes: experiment with rats, Chinese Journal of Medicine, 2005). The mice were divided into 3 groups. groups, with 20 mice in each group: A, control group with normal saline; B, prophylactic intraperitoneal injection of anti-human Pear1 monoclonal antibody (including LF2 or hLF105 antibody) 0.5 mg/kg, once a week; C, prophylactic intraperitoneal injection of anti-human Pear1 monoclonal antibody 1 mg/kg, once a week. After the mice were euthanized at 2 time points of 2 weeks and 4 weeks, an inverted “U”-shaped incision was selected to enter the abdomen, avoiding the original surgical incision. […] And the degree of adhesion in the peritoneal adhesion model was evaluated.
(§2) For fibroblast-specific Pear1 knockout mice, a peritoneal adhesion model was used to form a sham operation on the mice. The model preparation and animal grouping were as described above.
The formation of tissue adhesion depends on the synthesis of collagen and hydroxyproline is the precursor of collagen synthesis. […]

humanized Pear1 mice [4] = experiment: Subcutaneous mucosal adhesion model, HE and Masson staining at wounded site; format: in vivo; conditions: 5 micrograms at the wounded site every 7 days; 14th day; versus control group
Source text: Mice were anesthetized by intraperitoneal injection of pentobarbital sodium. The hair is depilated and sterilized, and the skin is excised. A thin layer of bonding agent was applied to one side of the silicone plate to fix the wound concentrically with a clamping board. Each clamping board was sutured at regular intervals with eight stitches to secure it to the intact tissue around the wound, preventing contraction of the wound edges. Sterile dressings were cut into circular shapes and attached to the silicone board for protecting the wound, preventing the animals from scratching or chewing. The anti-human Pear1 monoclonal antibody was […].
Mice were anesthetized using isoflurane, maintaining a flow of 2% isoflurane. The sterile dressings on the silicone board were peeled off (or not peeled off). Pictures were taken at the wounded sites next to the fixed position and scale bar. If necessary, sterile dressings can be reapplied. Image J was used to process the photos. The wounded area can be calculated according to the circled area by the scale.
[…] were fixed in 4% paraformaldehyde for 48 hours, after paraffin embedding, a semi-automatic rotary slicing machine (Leica; rm2235 and cm1950) was used for slicing, dewaxing is carried out at room temperature, gradient ethanol is used for rehydration, HE and Masson staining were then performed.
Subsequently, in order to detect the role of targeting Pear1 in inhibiting adhesion formation in vivo, the inventors constructed an adhesion model in humanized Pear1 mice, and at the same time instilled anti-human Pear1 monoclonal antibodies (including LF2 or hLF105) each at a dose of 5 micrograms at the wounded site, with once administration every 7 days. On the 14th day, the subcutaneous mucosal tissue at the wounded site was removed, stained with HE and Masson, and photographed under a microscope. The thickness of the subcutaneous mucosa and skin and the area of collagen were counted by Image J software for indicating the formation of adhesions.

humanized Pear1 mice [5] = experiment: Peritoneal adhesion model, indicators related to adhesion (immunohistochemistry or RT-PCR); format: in vivo; conditions: versus control group
Source text: as §1, §2
Immunohistochemistry or RT-PCR was used to measure some indicators related to adhesion formation to reflect the severity of adhesion, such as: fibrinogen (FIB), α-smooth actin (α-SMA), MMPs/TIMPs, transforming growth factor (TGF-β1), vascular endothelial growth factor (VEGF).

[6] = 0.5 mg/kg intraperitoneal once a week, 2 weeks (n = 8)
[7] = 1.0 mg/kg intraperitoneal once a week, 2 weeks (n = 8)
[8] = 1.0 mg/kg intraperitoneal once a week, 4 weeks (n = 8)
[9] = 0.5 mg/kg intraperitoneal once a week, 4 weeks (n = 8)

Molecule | ability to synthesize extracellular matrix [1] | activation of fibroblasts [1] | BhatiaDS score (humanized Pear1 mice [2]; [6]) | BhatiaDS score (humanized Pear1 mice [2]; [7]) | BhatiaDS score (humanized Pear1 mice [2]; [8]) | BhatiaDS score compared with the control group (humanized Pear1 mice [2]) | hydroxyproline content in tissues (humanized Pear1 mice [3]) | collagen deposition in the subcutaneous mucosa at wounded sites (Masson staining) (humanized Pear1 mice [4]) | dermal thickness at wounded sites (HE staining) (humanized Pear1 mice [4]) | fibroblasts at wounded sites (HE staining) (humanized Pear1 mice [4]) | indicators related to adhesion (FIB, α-SMA, MMPs/TIMPs, TGF-β1, VEGF) (humanized Pear1 mice [5]) | BhatiaDS score (humanized Pear1 mice [2]; [9])
B1 | inhibited | inhibited | I (grade I: adhesive area of the area treated in the caecums of vermiform/total area of the treated area<50%, easy for blunt separation) | III | I (grade I: adhesive area of the area treated in the caecums of vermiform/total area of the treated area<50%, easy for blunt separation) | significantly lower | significantly lower | less collagen deposition | smaller dermal thickness | fewer fibroblasts | significantly lower | 
B2 | inhibited | inhibited | II (grade II: above-mentioned area ratio≥50%, easy for blunt dissection) | III | II (grade II: above-mentioned area ratio≥50%, easy for blunt dissection) | significantly lower | significantly lower | less collagen deposition | smaller dermal thickness | fewer fibroblasts | significantly lower | I (grade I: adhesive area of the area treated in the caecums of vermiform/total area of the treated area<50%, easy for blunt separation)
B3 |  |  | II (grade II: above-mentioned area ratio≥50%, easy for blunt dissection) | III | I (grade I: adhesive area of the area treated in the caecums of vermiform/total area of the treated area<50%, easy for blunt separation) |  |  |  |  |  |  | I (grade I: adhesive area of the area treated in the caecums of vermiform/total area of the treated area<50%, easy for blunt separation)
B4 |  |  | II (grade II: above-mentioned area ratio≥50%, easy for blunt dissection) | IV | II (grade II: above-mentioned area ratio≥50%, easy for blunt dissection) |  |  |  |  |  |  | I (grade I: adhesive area of the area treated in the caecums of vermiform/total area of the treated area<50%, easy for blunt separation)
B5 |  |  | I (grade I: adhesive area of the area treated in the caecums of vermiform/total area of the treated area<50%, easy for blunt separation) | III | I (grade I: adhesive area of the area treated in the caecums of vermiform/total area of the treated area<50%, easy for blunt separation) |  |  |  |  |  |  | 0
